Publication doi:10.1101/2020.09.15.299115

Assays:
[1] = molecular target: mCherry-FKBP-Ubc9 (UniProt P63279)
[2] = molecular target: mCherry-FKBP-Ubc9 (UniProt P63279); experiment: partitioning into condensates

Row | KM of SUMOylation of RanGAP* (no scaffolds) [1] | fold concentration in droplets [2] | Molecule
1 | 70 µM |  | FKBP-EGFP-RanGAP* (RanGAP C-terminal domain 398-587, F562A) (from UniProt P46060 398-587) (domain or fragment)
2 |  | 1.9 fold | E1-EGFP (SAE1/2 heterodimer) (complex) chain 1: MVEKEEAGGGISEEEAAQYDRQIRLWGLEAQKRLRASRVLLVGLKGLGAEIAKNLILAGVKGLTMLDHEQVTPEDPGAQFLIRTGSVGRNRAEASLERAQNLNPMVDVKVDTEDIEKKPESFFTQFDAVCLTCCSRDVIVKVDQICHKNSIKFFTGDVFGYHGYTFANLGEHEFVEEKTKVAKVSQGVEDGPDTKRAKLDSSETTMVKKKVVFCPVKEALEVDWSSEKAKAALKRTTSDYFLLQVLLKFRTDKGRDPSSDTYEEDSELLLQIRNDVLDSLGISPDLLPEDFVRYCFSEMAPVCAVVGGILAQEIVKALSQRDPPHNNFFFFDGMKGNGIVECLGPK chain 2: MALSRGLPRELAEAVAGGRVLVVGAGGIGCELLKNLVLTGFSHIDLIDLDTIDVSNLNRQFLFQKKHVGRSKAQVAKESVLQFYPKANIVAYHDSIMNPDYNVEFFRQFILVMNALDNRAARNHVNRMCLAADVPLIESGTAGYLGQVTTIKKGVTECYECHPKPTQRTFPGCTIRNTPSEPIHCIVWAKYLFNQLFGEEDADQEVSPDRADPEAAWEPTEAEARARASNEDGDIKRISTKEWAKSTGYDPVKLFTKLFKDDIRYLLTMDKLWRKRKPPVPLDWAEVQSQGEETNASDQQNEPQLGLKDQQVLDVKSYARLFSKSIETLRVHLAEKGDGAELIWDKDDPSAMDFVTSAANLRMHIFSMNMKSRFDIKSMAGNIIPAIATTNAVIAGLIVLEGLKILSGKIDQCRTIFLNKQPNPRKKLLVPCALDPPNPNCYVCASKPEVTVRLNVHKVTVLTLQDKIVKEKFAMVAPDVQIEDGKGTILISSEEGETEANNHKKLSEFGIRNGSRLQADDFLQDYTLLINILHSEDLGKDVEFEVVGDAPEKVGPKQAEDAAKSITNGSDDGAQPSTSTAQEQDDVLIVDSDEEDSSNNADVSEEERSRKRKLDEKENLSAKRSRIEQKEELDDVIALD
